Data set [1] deals with the molecule itself. The experiment in a line: in-cell photocrosslinking of the GST homodimer (365 nm, 10 min), band intensity ratio on anti-His Western blot. The protocol:
E. coli GST is homodimer (Nishida et al., J. Mol. Biol., 1998, 281:135-147). Three sites at the dimer interface, Asn87 in a loop and Tyr92 and Val125 in α-helices were chosen for incorporating Azi (FIG. 10A). GST genes with TAG mutation at these sites and a C-terminal His6 tag were cotransfected with the orthogonal tRNACUA^Tyr/EAziRS pair in HEK293 cells, and the cells were grown in the presence of 1 mM of Azi. Photocrosslinking was performed by exposing the cells under 365 nm UV light for 10 minutes. Cell lysates were separated on SDS-PAGE and probed with an antibody against the His6 tag.
After photocrosslinking, higher molecular weight bands around 46 kD emerged, accompanied by the intensity decrease of the monomer band (several faint bands between 23 kD and 46 kD were proteins in the cell lysate recognized by the penta-His antibody nonspecifically, which were also seen in samples without exposure to UV light). […] Crosslinked GST migrated at different positions in the gel depending on where Azi was incorporated.
Background: In western blotting, separated proteins are transferred to a membrane and probed.

Data set [2] concerns the molecule itself. The experiment in a line: in-cell photocrosslinking of the GST homodimer, anti-FLAG Western blot.

Non-standard residues stand in square brackets, D forms with d. Phe(4-N3) = [N-]=[N+]=Nc1ccc(C[C@H](N)C(=O)O)cc1

B1: E. coli glutathione S-transferase (GST) with p-azidophenylalanine (Azi) incorporated at Val125 (125TAG), C-terminal His6 tag (enzyme)
chain: MKLFYKPGACSLASHITLRESGKDFTLVSVDLMKKRLENGDDYFAVNPKGQVPALLLDDGTLLTEGVAIMQYLADSVPDRQLLAPVNSISRYKTIEWLNYIATELHKGFTPLFRPDTPEEYKPT[Phe(4-N3)]RAQLEKKLQYVNEALKDEHWICGQRFTIADAYLFTVLRWAYAVKLNLEGLEHIAAFMQRMAERPEVQDALSAEGLKHHHHHH
notes: Expressed in HEK293/HEK293T cells with tRNACUA-Tyr/EAziRS and 1 mM Azi; crosslinked in live cells with 365 nm UV; X stands for the unnatural amino acid Azi
On to B1, for which, in data set [1], the crosslinking efficiency stood at 98%.

B2: E. coli glutathione S-transferase (GST) with p-azidophenylalanine (Azi) incorporated at Val125 (125TAG), C-terminal FLAG tag (enzyme, UniProt P0A9D2 1-201, looked up)
chain: MKLFYKPGACSLASHITLRESGKDFTLVSVDLMKKRLENGDDYFAVNPKGQVPALLLDDGTLLTEGVAIMQYLADSVPDRQLLAPVNSISRYKTIEWLNYIATELHKGFTPLFRPDTPEEYKPT[Phe(4-N3)]RAQLEKKLQYVNEALKDEHWICGQRFTIADAYLFTVLRWAYAVKLNLEGLEHIAAFMQRMAERPEVQDALSAEGLK
modifications: not fully specified (C-terminus); also: homodimer
notes: not shown: C-terminal FLAG tag replacing the His6 tag
As for B2, the binding result in data set [2] is “binds”.

B3: E. coli glutathione S-transferase (GST) with p-azidophenylalanine (Azi) incorporated at Asn87 (87TAG), C-terminal FLAG tag (enzyme, UniProt P0A9D2 1-201, looked up)
chain: MKLFYKPGACSLASHITLRESGKDFTLVSVDLMKKRLENGDDYFAVNPKGQVPALLLDDGTLLTEGVAIMQYLADSVPDRQLLAPV[Phe(4-N3)]SISRYKTIEWLNYIATELHKGFTPLFRPDTPEEYKPTVRAQLEKKLQYVNEALKDEHWICGQRFTIADAYLFTVLRWAYAVKLNLEGLEHIAAFMQRMAERPEVQDALSAEGLK
modifications: not fully specified (C-terminus); also: homodimer
notes: as for B2
Take B3: in data set [2], the binding result is listed as “binds”.

B4: E. coli glutathione S-transferase (GST) with p-azidophenylalanine (Azi) incorporated at Asn87 (87TAG), C-terminal His6 tag (enzyme)
chain: MKLFYKPGACSLASHITLRESGKDFTLVSVDLMKKRLENGDDYFAVNPKGQVPALLLDDGTLLTEGVAIMQYLADSVPDRQLLAPV[Phe(4-N3)]SISRYKTIEWLNYIATELHKGFTPLFRPDTPEEYKPTVRAQLEKKLQYVNEALKDEHWICGQRFTIADAYLFTVLRWAYAVKLNLEGLEHIAAFMQRMAERPEVQDALSAEGLKHHHHHH
notes: Expressed in HEK293/HEK293T cells with tRNACUA-Tyr/EAziRS and 1 mM Azi; crosslinked in live cells with 365 nm UV; X stands for the unnatural amino acid Azi; also called GST 87TAG; site 87
In the case of B4, the crosslinking efficiency in data set [1] amounted to 33%.

B5: E. coli glutathione S-transferase (GST) with p-azidophenylalanine (Azi) incorporated at Tyr92 (92TAG), C-terminal His6 tag (enzyme)
chain: MKLFYKPGACSLASHITLRESGKDFTLVSVDLMKKRLENGDDYFAVNPKGQVPALLLDDGTLLTEGVAIMQYLADSVPDRQLLAPVNSISR[Phe(4-N3)]KTIEWLNYIATELHKGFTPLFRPDTPEEYKPTVRAQLEKKLQYVNEALKDEHWICGQRFTIADAYLFTVLRWAYAVKLNLEGLEHIAAFMQRMAERPEVQDALSAEGLKHHHHHH
notes: Expressed in HEK293/HEK293T cells with tRNACUA-Tyr/EAziRS and 1 mM Azi; crosslinked in live cells with 365 nm UV; X stands for the unnatural amino acid Azi; also called site 92; GST-His6
Turning to B5, in data set [1], the crosslinking efficiency was 40%.
